From paper PMC4597091

Target: PepT2^ECD-S427C, labelled for MST (Rattus norvegicus) (UniProt Q63424)
Experiment: MST; 1.5 μM labelled ECD (S437C or S427C, blue maleimide) with 0.03–1,000 μM ligand; 22°C; 25 mM MES pH 6.5, 100 mM NaCl

With trypsin (intestinal protease) (enzyme) the Kd was 6 µM.
